Source: the supplement of paper PMC12855868

B1: library; numbered along this chain (parent)
chain: MAAAGGARLLRAASAVLGGPAGRWLHHAGSRAGSSGLLRNRGPGGSAEASRSLSVSARARSSSEDKITVHFINRDGETLTTKGKVGDSLLDVVVENNLDIDGFGACEGTLACSTCHLIFEDHIYEKLDAITDEENDMLDLAYGLTDRSRLGCQICLTKSMDNMTVRVPETVADARQSIDVGKTS

Variants of: B1
Test: scaled log2 fold change in cell abundance, elesclomol vs control (0 = silent mean, 1 = nonsense mean) (scaled log2 ratio); higher = higher viability under elesclomol (loss of FDX1 cuproptosis function)
Details: glucose 10 mM
Description: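 Deep mutational scan of full-length human FDX1: a pooled saturation-mutagenesis ORF library (every residue 2-184 mutated to all 19 amino acids plus stop, and silent codons where available) was expressed by lentivirus in FDX1-knockout ABC1 (14 days) or HEK293T (11 days) cells grown with elesclomol (ES) or DMSO control. Variant abundance came from ORF sequencing. The log2 fold change (ES vs control, mean of duplicates) was centred on the silent-variant mean (0) and scaled to the nonsense-variant mean (1). Higher values mean greater viability under ES, i.e. loss of FDX1 function in cuproptosis.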

[1] = with ABC1 FDX1 KO, elesclomol 5 nM, 14 days
[2] = with HEK293T FDX1 KO, elesclomol 40 nM, 11 days
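Also: variant abundance is its share of total variant reads in each endpoint sample, from next-generation sequencing of the integrated ORF PCR-amplified out of genomic DNA.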

| Variant | scaled log2 fold change [1] | scaled log2 fold change [2] |
| --- | --- | --- |
| D87Y | -0.31 | -0.0378 |
| D87H | -0.183 | 0.121 |
| D87Q | -0.303 | 0.511 |
| D87C | -0.824 | -0.252 |
| D87G | -0.161 | -0.147 |
| D87W | -0.221 | -0.509 |
| D87M | 0.055 | -0.441 |
| D87P | 0.439 | -0.0143 |
| D87E | -0.224 | 0.0766 |
| D87N | -0.0848 |  |
| D87K | 0.34 | 0.127 |
| D87R | -0.147 |  |
| D87V | -0.164 | -0.704 |
| D87S | -0.493 |  |
| D87F | 0.195 | -0.393 |
| D87L | -0.301 | -0.549 |
| D87T | -0.14 |  |
| D87A | 0.0673 |  |
| D87I | -0.274 | -0.421 |
| G86F | 0.287 | -0.571 |
| G86H | 0.239 | 0.453 |
| G86T | 0.117 | -0.144 |
| G86P | 0.208 | 0.284 |
| G86W | 0.246 |  |
| G86Y | 0.0464 | 0.586 |

| Variant | scaled log2 fold change [1] | scaled log2 fold change [2] |
| --- | --- | --- |
| G86C | 0.175 | 1.4 |
| G86I | 0.576 | 0.0646 |
| G86E | 0.115 | 0.852 |
| G86M | -0.125 | -0.231 |
| G86V | 0.654 | 0.478 |
| G86S | 0.0131 | 0.985 |
| G86K | 0.242 | -0.0346 |
| G86N | 0.233 |  |
| G86A | 0.349 | 0.0692 |
| G86L | 0.171 | 0.00376 |
| G86Q | -0.2 | 0.928 |
| G86D | 0.248 | -0.689 |
| G86R | 0.269 | -0.218 |
| T80I | 0.231 | 0.056 |
| T80V | 0.126 | -0.0679 |
| T80M | 0.0647 |  |
| T80G | 0.0761 | -0.279 |
| T80P | 0.231 | -0.0181 |
| T80L | -0.289 | -0.147 |
| T80H | 0.295 |  |
| T80A | -0.231 |  |
| T80D | -0.0431 | -0.13 |
| T80Y | 0.26 | -0.203 |
| T80C | 0.0285 | -0.291 |
| T80F | 0.473 | -0.712 |

| Variant | scaled log2 fold change [1] | scaled log2 fold change [2] |
| --- | --- | --- |
| T80K | 0.183 | -0.131 |
| T80Q | -0.0848 | 0.379 |
| T80R | -0.0268 | -0.512 |
| T80S | -0.407 |  |
| T80N | 0.128 |  |
| T80E | 0.301 | -0.0351 |
| T80W | 0.177 | 0.805 |
| L79W | -0.0916 | 0.138 |
| L79C | 0.0853 | -0.242 |
| L79E | 0.0989 | -0.00345 |
| L79Y | -0.343 | 0.278 |
| L79V | 0.047 | 1.39 |
| L79N | 0.26 | 0.247 |
| L79A | 0.253 | 0.232 |
| L79I | -0.0225 | -0.761 |
| L79S | 0.0141 |  |
| L79P | 0.634 | 0.299 |
| L79Q | -0.224 | -0.128 |
| L79R | -0.538 | -0.117 |
| L79F | 0.0893 | -0.166 |
| L79D | 0.287 | -0.0667 |
| L79T | -0.0538 |  |
| L79M | -0.15 | -0.649 |
| L79H | -0.594 | 0.119 |
| L79G | 0.145 | 1.18 |

| Variant | scaled log2 fold change [1] | scaled log2 fold change [2] |
| --- | --- | --- |
| L79K | 0.0188 | 0.977 |
| V85P | -0.0817 | -1.46 |
| V85H | -0.166 | -0.307 |
| V85W | 0.119 | 0.889 |
| V85E | -0.055 | -0.248 |
| V85C | -0.197 | -0.0853 |
| V85T | -0.279 | -0.55 |
| V85Y | -0.534 | -0.0166 |
| V85M | 0.00542 | -0.0343 |
| V85G | 0.265 | 0.288 |
| V85N | -0.0121 | 0.0182 |
| V85F | 0.217 | 1.05 |
| V85R | 0.266 | -0.792 |
| V85D | 0.12 | -0.189 |
| V85K | 0.192 | -0.177 |
| V85I | -0.161 | -0.597 |
| V85A | 0.0788 | -0.325 |
| V85S | 0.131 | -0.121 |
| V85L | -0.101 | 0.47 |
| V85Q | 0.0746 | -0.0938 |
| E77R | -0.178 | -0.307 |
| E77Y | 0.514 | -0.542 |
| E77T | -1.24 | -0.154 |
| E77W | 0.139 | 0.815 |
| E77V | -0.145 | -0.226 |

| Variant | scaled log2 fold change [1] | scaled log2 fold change [2] |
| --- | --- | --- |
| E77S | -0.974 | 0.00555 |
| E77Q | -0.0695 | 0.00586 |
| E77P | 0.108 |  |
| K82A | 0.109 |  |
| K82N | -0.873 | 0.352 |
| K82L | 0.0365 | -0.76 |
| K82M | 0.172 |  |
| K82S | -0.449 |  |
| K82W | 0.0928 | -0.0187 |
| K82D | -0.58 | -0.293 |
| K82C | 0.296 | 0.165 |
| K82Y | -0.328 | -0.154 |
| K82I | 0.215 | 0.419 |
| K82V | -0.0519 | 0.989 |
| K82Q | -0.471 |  |
| K82H | -0.223 | -0.0273 |
| K82T | -0.0344 | 0.0849 |
| K82P | -0.285 | -0.31 |
| K82R | -0.619 | -0.611 |
| K82E | 0.0245 | -0.309 |
| K82G | -0.688 | -0.137 |
| K82F | -0.531 | -0.243 |
